The results in this text go back to patent publication US20180305699A1 (UNIVERSITY OF CHICAGO, published 2018).

The target in assay [1] is T1, methionyl-tRNA synthetase (Mes1) (S. cerevisiae, UniProt P00958 2-751, limits assumed).
T1 construct: Component of the purified AME complex; also called YGR264C
T1 sequence: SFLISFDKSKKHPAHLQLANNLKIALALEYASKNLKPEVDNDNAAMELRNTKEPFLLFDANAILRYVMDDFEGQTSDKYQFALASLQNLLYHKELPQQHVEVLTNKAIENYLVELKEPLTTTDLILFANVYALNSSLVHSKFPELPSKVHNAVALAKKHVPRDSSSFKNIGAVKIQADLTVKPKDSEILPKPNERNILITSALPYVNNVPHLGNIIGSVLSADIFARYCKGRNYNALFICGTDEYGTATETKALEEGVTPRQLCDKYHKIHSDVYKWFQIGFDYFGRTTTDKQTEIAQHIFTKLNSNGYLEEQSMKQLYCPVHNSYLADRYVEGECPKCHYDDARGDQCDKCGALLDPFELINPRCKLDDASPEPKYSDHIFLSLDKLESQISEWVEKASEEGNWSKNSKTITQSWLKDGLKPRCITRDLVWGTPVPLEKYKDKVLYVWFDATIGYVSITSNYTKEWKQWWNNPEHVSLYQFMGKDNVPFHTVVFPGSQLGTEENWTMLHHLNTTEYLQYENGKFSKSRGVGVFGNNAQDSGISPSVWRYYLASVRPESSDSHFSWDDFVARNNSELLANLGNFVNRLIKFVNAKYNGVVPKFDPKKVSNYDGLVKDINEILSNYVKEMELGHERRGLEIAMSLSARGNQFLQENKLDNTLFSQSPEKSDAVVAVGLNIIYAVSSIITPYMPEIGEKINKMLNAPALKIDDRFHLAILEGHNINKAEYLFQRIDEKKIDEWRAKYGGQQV
The experiment in a line: co-elution on Superdex200 gel filtration, western blot of fractions (AME complex of Arc1, Mes1 and Gus1). (In general: SEC sorts molecules by how far they enter the pores of the column.)
Text: (§1) Shown on the left panel is the elution profile from Superdex200 gel filtration column.

In assay [2] the target is T2, glutamyl-tRNA synthetase (Gus1) (S. cerevisiae, UniProt P46655 1-708).
T2 construct: Component of the purified AME complex; also called YGL245W
T2 sequence: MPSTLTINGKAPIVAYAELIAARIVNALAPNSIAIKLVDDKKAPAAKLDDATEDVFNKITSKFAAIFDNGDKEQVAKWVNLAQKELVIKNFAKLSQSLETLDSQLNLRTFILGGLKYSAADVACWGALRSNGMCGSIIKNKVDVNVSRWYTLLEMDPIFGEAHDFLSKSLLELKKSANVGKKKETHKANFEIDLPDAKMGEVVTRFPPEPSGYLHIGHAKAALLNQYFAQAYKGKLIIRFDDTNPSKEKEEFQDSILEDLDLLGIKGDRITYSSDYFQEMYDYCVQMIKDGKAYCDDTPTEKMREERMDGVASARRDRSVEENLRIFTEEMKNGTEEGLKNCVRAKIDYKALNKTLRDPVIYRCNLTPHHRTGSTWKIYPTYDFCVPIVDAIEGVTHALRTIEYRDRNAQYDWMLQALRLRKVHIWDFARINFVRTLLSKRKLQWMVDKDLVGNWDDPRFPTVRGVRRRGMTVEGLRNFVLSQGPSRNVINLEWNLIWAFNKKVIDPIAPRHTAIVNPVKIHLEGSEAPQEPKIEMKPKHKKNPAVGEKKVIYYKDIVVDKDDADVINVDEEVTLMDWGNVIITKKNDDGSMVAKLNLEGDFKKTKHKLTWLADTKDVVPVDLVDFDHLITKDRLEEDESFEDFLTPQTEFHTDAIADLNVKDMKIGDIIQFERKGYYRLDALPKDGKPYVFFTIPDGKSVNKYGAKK
The description is as above.
Text: as §1

B1: aminoacylation cofactor (Arc1) (other)
chain: MSDLVTKFESLIISKYPVSFTKEQSAQAAQWESVLKSGQIQPHLDQLNLVLRDNTFIVSTLYPTSTDVHVFEVALPLIKDLVASSKDVKSTYTTYRHILRWIDYMQNLLEVSSTDKLEINHDLDLPHEVIEKKKKAPAGGAADAAAKADEDVSKKAKKQDHPRGKPDEETLKKLREEAKAKKAAKKAANAKQQQEQQNKAPEKPKPSAIDFRVGFIQKAIKHPDADSLYVSTIDVGDEEGPRTVCSGLVKHFPLDAMQERYVVVVCNLKPVNMRGIKSTAMVLCGSNDDKVEFVEPPKDSKAGDKVFFEGFGDEAPMKQLNPKKKIWEHLQPHFTTNDGLEVIFKDEEEKDHPVRKLTNAKGESFKVASIANAQVR
notes: Component of the purified AME complex; also called YGL105W
As for B1, the binding result in assay [1] and in assay [2] was “binds” in each case.
